Data as given in PMC4345311.
Residue numbers refer to the chain shown, from its start.

B1: PR10.1-8E-M9 (structured_RNA)
RNA: GGGUUACCUAGGUGUAGAUGCUCUUAAGUGUAACUUCUCAUAACAUCCGGAGGCUUUUACUUCCGGGGUGGAUCCAUUGGUCUGAACUGCUUCGAA
B2: PR10.1-8E-D3CR (structured_RNA)
RNA: GGGUUACCUAGGUGUAGAUGCUCUUAAGUGUAACUUCUCAUAACAUCCGGAGGCUUUUACUUCCGGGG
B3: PR10.1-8E-M1 (structured_RNA)
RNA: GGGUUACCUAGGUGUAGAUGCUCUUAAGUGUAACUUCUCAUAACAUCCGGAGGCACGUACUUCCGGGGACCUAAGUGACGUCUGAACUGCUUCGAA
B4: PR10.1-8E-M4 (structured_RNA)
RNA: B3 RNA with C23A, U24C, U25G, A26U, A55U, C56U, G57U
B5: PR10.1-8E-M6 (structured_RNA)
RNA: B3 RNA with A27U, G28C, U29A, G30C, U31A, A55U, C56U, G57U
B6: PR10.1-8E-M5 (structured_RNA)
RNA: B3 RNA with A18U, U19A, G20C, C21G, U22A, A55U, C56U, G57U
B7: PR10.1-8E-M10 (structured_RNA)
RNA: GGCAGUGGAUCCAGUAGAUGCUCUUAAGUGUAACUUCUCAUAACAUCCGGAGGCUUUUACUUCCGGGGACCUAAGUGACGUCUGAACUGCUUCGAA
B8: PR10.1-8E-M8 (structured_RNA)
RNA: GGGUUACCUAGGUGUAGUGUGACUUAUCGUAAACUUCUCAUAACAUCCGGAGGCUUUUACUUCCGGGGACCUAAGUGACGUCUGAACUGCUUCGAA
B9: PR10.1-8E-M2 (structured_RNA)
RNA: GGGUUACCUAGGUGUAGAUGCUCUUAAGUGUAACUUCUCAUAACAUCCGGAGGCUUUUAGAAGGCCCGACCUAAGUGACGUCUGAACUGCUUCGAA

Target: HIV-1 protease (PR), wild-type (HIV-1, UniProt P04585 489-587)
Test: filter binding

Binder | binding result | Kd [nM]
B1 | no binding | –
B2 | no binding | –
B3 | no binding | –
B4 | no binding | –
B5 | no binding | –
B6 | no binding | –
B7 | no binding | –
B8 | – | 386 ± 63
B9 | no binding | –
